Here are results for six molecules from patent EP4663654A1 (Hangzhou Sciwind Biosciences Co., Ltd., dated 2025).

Starred links: 1 amine or outer side, 2 acyl side, 3 side chain; linkers in the order of their positions; H or OH if unused. Non-standard residues stand in square brackets, D forms with d. *: point of attachment. C20 diacid = O=C(O)CCCCCCCCCCCCCCCCCCC(=O)*; γGlu = O=C(O)[C@H](CCC(=O)[*:2])N[*:1]; Hyp = O=C(O)[C@@H]1C[C@@H](O)CN1

T1: human amylin receptor (AMY3) on CHO-K1/Ga15/AMY3 amylin receptor/CRE-luc cells (human, UniProt P30988 25-474; O60896 24-148)
T1 sequence (looked up) 1: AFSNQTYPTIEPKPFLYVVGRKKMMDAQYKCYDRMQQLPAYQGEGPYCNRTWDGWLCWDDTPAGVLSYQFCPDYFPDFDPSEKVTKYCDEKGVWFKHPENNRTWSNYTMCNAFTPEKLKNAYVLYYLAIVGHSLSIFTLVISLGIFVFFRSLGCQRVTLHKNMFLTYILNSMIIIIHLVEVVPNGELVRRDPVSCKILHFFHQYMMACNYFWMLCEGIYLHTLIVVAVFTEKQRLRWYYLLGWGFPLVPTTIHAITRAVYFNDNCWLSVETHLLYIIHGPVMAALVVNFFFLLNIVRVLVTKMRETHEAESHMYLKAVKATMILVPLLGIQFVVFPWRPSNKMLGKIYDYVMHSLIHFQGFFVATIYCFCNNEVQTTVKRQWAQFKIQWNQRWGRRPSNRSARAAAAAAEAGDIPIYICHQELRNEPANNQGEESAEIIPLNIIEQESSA
T1 sequence (looked up) 2: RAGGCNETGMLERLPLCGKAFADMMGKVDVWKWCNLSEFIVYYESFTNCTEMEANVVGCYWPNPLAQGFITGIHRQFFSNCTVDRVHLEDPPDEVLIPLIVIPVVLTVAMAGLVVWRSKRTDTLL

B1: polypeptide derivative M50 (peptide)
peptide: {C20 diacid-γGlu}-ASQLSTAATQRLADFLRHSSANLKPILPPTNVGSNT[Hyp]-NH2
SMILES: CC[C@H](C)[C@H](NC(=O)[C@@H]1CCCN1C(=O)[C@H](CCCCN)NC(=O)[C@H](CC(C)C)NC(=O)[C@H](CC(N)=O)NC(=O)[C@H](C)NC(=O)[C@H](CO)NC(=O)[C@H](CO)NC(=O)[C@H](Cc1c[nH]cn1)NC(=O)[C@H](CCCNC(=N)N)NC(=O)[C@H](CC(C)C)NC(=O)[C@H](Cc1ccccc1)NC(=O)[C@H](CC(=O)O)NC(=O)[C@H](C)NC(=O)[C@H](CC(C)C)NC(=O)[C@H](CCCNC(=N)N)NC(=O)[C@H](CCC(N)=O)NC(=O)[C@@H](NC(=O)[C@H](C)NC(=O)[C@H](C)NC(=O)[C@@H](NC(=O)[C@H](CO)NC(=O)[C@H](CC(C)C)NC(=O)[C@H](CCC(N)=O)NC(=O)[C@H](CO)NC(=O)[C@H](C)NC(=O)CC[C@H](NC(=O)CCCCCCCCCCCCCCCCCCC(=O)O)C(=O)O)[C@@H](C)O)[C@@H](C)O)C(=O)N[C@@H](CC(C)C)C(=O)N1CCC[C@H]1C(=O)N1CCC[C@H]1C(=O)N[C@H](C(=O)N[C@@H](CC(N)=O)C(=O)N[C@H](C(=O)NCC(=O)N[C@@H](CO)C(=O)N[C@@H](CC(N)=O)C(=O)N[C@H](C(=O)N1C[C@H](O)C[C@H]1C(N)=O)[C@@H](C)O)C(C)C)[C@@H](C)O
B2: polypeptide derivative M48 (peptide)
peptide: {C20 diacid-γGlu}-ASQLSTAATQRLADFLRHSSSNLKPILPPTNVGSNT[Hyp]-NH2
SMILES: CC[C@H](C)[C@H](NC(=O)[C@@H]1CCCN1C(=O)[C@H](CCCCN)NC(=O)[C@H](CC(C)C)NC(=O)[C@H](CC(N)=O)NC(=O)[C@H](CO)NC(=O)[C@H](CO)NC(=O)[C@H](CO)NC(=O)[C@H](Cc1c[nH]cn1)NC(=O)[C@H](CCCNC(=N)N)NC(=O)[C@H](CC(C)C)NC(=O)[C@H](Cc1ccccc1)NC(=O)[C@H](CC(=O)O)NC(=O)[C@H](C)NC(=O)[C@H](CC(C)C)NC(=O)[C@H](CCCNC(=N)N)NC(=O)[C@H](CCC(N)=O)NC(=O)[C@@H](NC(=O)[C@H](C)NC(=O)[C@H](C)NC(=O)[C@@H](NC(=O)[C@H](CO)NC(=O)[C@H](CC(C)C)NC(=O)[C@H](CCC(N)=O)NC(=O)[C@H](CO)NC(=O)[C@H](C)NC(=O)CC[C@H](NC(=O)CCCCCCCCCCCCCCCCCCC(=O)O)C(=O)O)[C@@H](C)O)[C@@H](C)O)C(=O)N[C@@H](CC(C)C)C(=O)N1CCC[C@H]1C(=O)N1CCC[C@H]1C(=O)N[C@H](C(=O)N[C@@H](CC(N)=O)C(=O)N[C@H](C(=O)NCC(=O)N[C@@H](CO)C(=O)N[C@@H](CC(N)=O)C(=O)N[C@H](C(=O)N1C[C@H](O)C[C@H]1C(N)=O)[C@@H](C)O)C(C)C)[C@@H](C)O
B3: polypeptide derivative M46 (peptide)
peptide: {C20 diacid-γGlu}-ASQLSTAATQRLADFLRHSSQNLKPILPPTNVGSNT[Hyp]-NH2
SMILES: CC[C@H](C)[C@H](NC(=O)[C@@H]1CCCN1C(=O)[C@H](CCCCN)NC(=O)[C@H](CC(C)C)NC(=O)[C@H](CC(N)=O)NC(=O)[C@H](CCC(N)=O)NC(=O)[C@H](CO)NC(=O)[C@H](CO)NC(=O)[C@H](Cc1c[nH]cn1)NC(=O)[C@H](CCCNC(=N)N)NC(=O)[C@H](CC(C)C)NC(=O)[C@H](Cc1ccccc1)NC(=O)[C@H](CC(=O)O)NC(=O)[C@H](C)NC(=O)[C@H](CC(C)C)NC(=O)[C@H](CCCNC(=N)N)NC(=O)[C@H](CCC(N)=O)NC(=O)[C@@H](NC(=O)[C@H](C)NC(=O)[C@H](C)NC(=O)[C@@H](NC(=O)[C@H](CO)NC(=O)[C@H](CC(C)C)NC(=O)[C@H](CCC(N)=O)NC(=O)[C@H](CO)NC(=O)[C@H](C)NC(=O)CC[C@H](NC(=O)CCCCCCCCCCCCCCCCCCC(=O)O)C(=O)O)[C@@H](C)O)[C@@H](C)O)C(=O)N[C@@H](CC(C)C)C(=O)N1CCC[C@H]1C(=O)N1CCC[C@H]1C(=O)N[C@H](C(=O)N[C@@H](CC(N)=O)C(=O)N[C@H](C(=O)NCC(=O)N[C@@H](CO)C(=O)N[C@@H](CC(N)=O)C(=O)N[C@H](C(=O)N1C[C@H](O)C[C@H]1C(N)=O)[C@@H](C)O)C(C)C)[C@@H](C)O
B4: polypeptide derivative M51 (peptide)
peptide: {C20 diacid-γGlu}-ASQLSTAATQRLADFLRHSSGNLKPILPPTNVGSNT[Hyp]-NH2
SMILES: CC[C@H](C)[C@H](NC(=O)[C@@H]1CCCN1C(=O)[C@H](CCCCN)NC(=O)[C@H](CC(C)C)NC(=O)[C@H](CC(N)=O)NC(=O)CNC(=O)[C@H](CO)NC(=O)[C@H](CO)NC(=O)[C@H](Cc1c[nH]cn1)NC(=O)[C@H](CCCNC(=N)N)NC(=O)[C@H](CC(C)C)NC(=O)[C@H](Cc1ccccc1)NC(=O)[C@H](CC(=O)O)NC(=O)[C@H](C)NC(=O)[C@H](CC(C)C)NC(=O)[C@H](CCCNC(=N)N)NC(=O)[C@H](CCC(N)=O)NC(=O)[C@@H](NC(=O)[C@H](C)NC(=O)[C@H](C)NC(=O)[C@@H](NC(=O)[C@H](CO)NC(=O)[C@H](CC(C)C)NC(=O)[C@H](CCC(N)=O)NC(=O)[C@H](CO)NC(=O)[C@H](C)NC(=O)CC[C@H](NC(=O)CCCCCCCCCCCCCCCCCCC(=O)O)C(=O)O)[C@@H](C)O)[C@@H](C)O)C(=O)N[C@@H](CC(C)C)C(=O)N1CCC[C@H]1C(=O)N1CCC[C@H]1C(=O)N[C@H](C(=O)N[C@@H](CC(N)=O)C(=O)N[C@H](C(=O)NCC(=O)N[C@@H](CO)C(=O)N[C@@H](CC(N)=O)C(=O)N[C@H](C(=O)N1C[C@H](O)C[C@H]1C(N)=O)[C@@H](C)O)C(C)C)[C@@H](C)O
B5: polypeptide derivative M49 (peptide)
peptide: {C20 diacid-γGlu}-ASQLSTAATQRLADFLRHSSTNLKPILPPTNVGSNT[Hyp]-NH2
SMILES: CC[C@H](C)[C@H](NC(=O)[C@@H]1CCCN1C(=O)[C@H](CCCCN)NC(=O)[C@H](CC(C)C)NC(=O)[C@H](CC(N)=O)NC(=O)[C@@H](NC(=O)[C@H](CO)NC(=O)[C@H](CO)NC(=O)[C@H](Cc1c[nH]cn1)NC(=O)[C@H](CCCNC(=N)N)NC(=O)[C@H](CC(C)C)NC(=O)[C@H](Cc1ccccc1)NC(=O)[C@H](CC(=O)O)NC(=O)[C@H](C)NC(=O)[C@H](CC(C)C)NC(=O)[C@H](CCCNC(=N)N)NC(=O)[C@H](CCC(N)=O)NC(=O)[C@@H](NC(=O)[C@H](C)NC(=O)[C@H](C)NC(=O)[C@@H](NC(=O)[C@H](CO)NC(=O)[C@H](CC(C)C)NC(=O)[C@H](CCC(N)=O)NC(=O)[C@H](CO)NC(=O)[C@H](C)NC(=O)CC[C@H](NC(=O)CCCCCCCCCCCCCCCCCCC(=O)O)C(=O)O)[C@@H](C)O)[C@@H](C)O)[C@@H](C)O)C(=O)N[C@@H](CC(C)C)C(=O)N1CCC[C@H]1C(=O)N1CCC[C@H]1C(=O)N[C@H](C(=O)N[C@@H](CC(N)=O)C(=O)N[C@H](C(=O)NCC(=O)N[C@@H](CO)C(=O)N[C@@H](CC(N)=O)C(=O)N[C@H](C(=O)N1C[C@H](O)C[C@H]1C(N)=O)[C@@H](C)O)C(C)C)[C@@H](C)O
B6: polypeptide derivative M47 (peptide)
peptide: {C20 diacid-γGlu}-ASQLSTAATQRLADFLRHSSENLKPILPPTNVGSNT[Hyp]-NH2
SMILES: CC[C@H](C)[C@H](NC(=O)[C@@H]1CCCN1C(=O)[C@H](CCCCN)NC(=O)[C@H](CC(C)C)NC(=O)[C@H](CC(N)=O)NC(=O)[C@H](CCC(=O)O)NC(=O)[C@H](CO)NC(=O)[C@H](CO)NC(=O)[C@H](Cc1c[nH]cn1)NC(=O)[C@H](CCCNC(=N)N)NC(=O)[C@H](CC(C)C)NC(=O)[C@H](Cc1ccccc1)NC(=O)[C@H](CC(=O)O)NC(=O)[C@H](C)NC(=O)[C@H](CC(C)C)NC(=O)[C@H](CCCNC(=N)N)NC(=O)[C@H](CCC(N)=O)NC(=O)[C@@H](NC(=O)[C@H](C)NC(=O)[C@H](C)NC(=O)[C@@H](NC(=O)[C@H](CO)NC(=O)[C@H](CC(C)C)NC(=O)[C@H](CCC(N)=O)NC(=O)[C@H](CO)NC(=O)[C@H](C)NC(=O)CC[C@H](NC(=O)CCCCCCCCCCCCCCCCCCC(=O)O)C(=O)O)[C@@H](C)O)[C@@H](C)O)C(=O)N[C@@H](CC(C)C)C(=O)N1CCC[C@H]1C(=O)N1CCC[C@H]1C(=O)N[C@H](C(=O)N[C@@H](CC(N)=O)C(=O)N[C@H](C(=O)NCC(=O)N[C@@H](CO)C(=O)N[C@@H](CC(N)=O)C(=O)N[C@H](C(=O)N1C[C@H](O)C[C@H]1C(N)=O)[C@@H](C)O)C(C)C)[C@@H](C)O

The assay has as its target T1, human amylin receptor (AMY3) on …. Nature of the assay: cell-based or functional assay.
Consider B1, for which the “EC50/nM, CRE-luciferase reporter in amylin receptor/CRE-luc CHO cells” value (“EC50/nM … in amylin receptor/CRE-luc CHO cells” below) was 0.07 nM and the “Relative activity (the EC50 ratio of Cagrilintide to the compound)” value came out at 186%.

As to B2, the “EC50/nM … in amylin receptor/CRE-luc CHO cells” value is 0.05 nM and the “Relative activity (the EC50 ratio of Cagrilintide to the compound)” value turned out to be 180%.

For the molecule B3, the “EC50/nM … in amylin receptor/CRE-luc CHO cells” value was 0.06 nM and the “Relative activity (the EC50 ratio of Cagrilintide to the compound)” value was found to be 150%.

Turning to B4, the “EC50/nM … in amylin receptor/CRE-luc CHO cells” value was determined as 0.08 nM and the “Relative activity (the EC50 ratio of Cagrilintide to the compound)” value worked out at 163%.

Turning to B5, the “EC50/nM … in amylin receptor/CRE-luc CHO cells” value worked out at 0.08 nM and the “Relative activity (the EC50 ratio of Cagrilintide to the compound)” value turned out to be 163%.

As for B6, the “EC50/nM … in amylin receptor/CRE-luc CHO cells” value worked out at 0.08 nM and the “Relative activity (the EC50 ratio of Cagrilintide to the compound)” value is 113%.
